Data on 3 molecules can be found in patent US10787640B2, “Producing mesodermal cell types and methods of using the same” (The Board of Trustees of the Leland Stanford Junior …, priority 2015, dated 2020).

In assay [1] the test system is hESC-derived primitive streak. Description: Paraxial versus lateral/cardiac mesoderm specification from primitive streak. The assay is classed as cell-based, human. How it is done:
(§1) Subsequently, day 1 anterior primitive streak was briefly washed (DMEM/F12) and differentiated towards day 2 paraxial mesoderm for 24 hours (1 μM A-83-01+3 μM CHIR99021+250 nM LDN-193189+20 ng/mL FGF2). Separately, day 1 mid primitive streak was differentiated towards day 2 lateral mesoderm for 24 hours (1 μM A-83-01+30 ng/mL BMP4+1 μM C59; with 2 μM SB-505124 sometimes used instead of A-83-01).
B) To assess whether FGF/ERK signaling was permissive for both paraxial and lateral/cardiac mesoderm specification, hESCs were differentiated into primitive streak for 24 hours, and then transferred into (i) A-83-01+DM3189 (“AD”; permissive for paraxial mesoderm) or (iii) A-83-01+BMP4+C59 (“AB+C59”; permissive for lateral/cardiac mesoderm) for 24 hours in the presence or absence of a FGF agonist (FGF2, 10-20 ng/mL), an FGFR inhibitor (PD173074, 100 nM) or a MAPK/ERK inhibitor (PD0325901, 500 nM) for 24 hours and qPCR for all experiments was conducted on day 2 (that is, after 48 total hours of hESC differentiation). To assess whether TGFβ signaling altered paraxial, intermediate and lateral/cardiac mesoderm specification, hESCs were differentiated into primitive streak for 24 hours, and then transferred into (ii) DM3189+FGF2 (“DF”; permissive for paraxial mesoderm) or (iv) BMP4+C59 (“B+C59”; permissive for lateral/cardiac mesoderm) for 24 hours in the presence of a TGFβ agonist (Activin, 10-25 ng/mL) or a TGFβR inhibitor (A-83-01, 1 μM) for 24 hours or (v) BMP4 (3 ng/mL)+FGF2 (20 ng/mL) (“B3F20”) for 24 hours in the presence of a TGFβ agonist (Activin, 3-25 ng/mL) or a TGFβR inhibitor (A-83-01, 1 μM) and qPCR for all experiments was conducted on day 2 (that is, after 48 total hours of hESC differentiation). […] Therefore, hESCs were differentiated towards primitive streak for 24 hours, and then subsequently transferred into (i) A-83-01+CHIR99021+FGF2 (ACF) in the presence or absence of one of two BMPR inhibitors (DMH1, 1 μM or LDN193189, 250 nM) for 24 hours and qPCR was conducted on day 2. Alternately, hESC-derived PS was transferred into (ii) CHIR99021+DM3189+FGF2 (CDF) for 24 hours in the presence or absence of a TGFβ agonist (25 ng/mL Activin) or one of two TGFβR inhibitors (SB-505124, 2 μM or A-83-01, 1 μM) for 24 hours and qPCR was conducted on day 2. […] E) To test the role of FGF in lateral mesoderm induction (on day 2 of hESC differentiation), NKX2.5-GFP hESCs were differentiated into mid primitive streak for 24 hours, and then were treated with BMP4+C59+SB505124 in the presence of an FGF agonist (FGF2, 20-50 ng/mL) or a FGFR inhibitor (PD173074, 100 nM) or a MAPK/ERK inhibitor (PD0325901, 500 nM) for 24 hours, and then all cultures were treated with BMP4+C59+SB505124+FGF2 for 24 hours more before being harvested on day 3 for FACS.

The next assay concerns hESCs. Description: Downstream mesoderm potential of PS induced with Activin or BMP4. The assay is classed as cell-based, human. How it is done: as §1
E) To assess whether inducing PS in the presence of TGFβ signaling altered its downstream potential to form different kinds of mesoderm, (i) H7 hESCs were differentiated into PS with CHIR99021+FGF2+PIK90 (CFK) for 24 hours in the presence or absence of increasing amounts of Activin (10-100 ng/mL), and then were transferred into paraxial mesoderm induction conditions (A-83-01+CHIR99021+DM3189+FGF2) for 24 hrs, and qPCR was conducted or (ii) H7 hESCs were differentiated into PS with BMP4 (10 ng/mL)+CHIR99021+FGF2+PIK90 (B10CFK) for 24 hours in the presence or absence of increasing amounts of Activin (10-100 ng/mL), and then were transferred into lateral/cardiac mesoderm inductions (A-83-01+BMP4+C59) for 24 hours and qPCR was conducted. […] F) To assess whether inducing PS in the presence of BMP signaling altered its downstream potential to form different kinds of mesoderm, H7 hESCs were differentiated into PS with Activin (10 ng/mL)+CHIR99021+FGF2+PIK90 (A10CFK) for 24 hours in the presence of absence of increasing amounts of BMP4 (1-40 ng/mL), and then were (i) transferred into paraxial mesoderm induction conditions (A-83-01+CHIR99021+DM3189+FGF2) for 24 hrs, and qPCR was conducted or were (ii) transferred into lateral/cardiac mesoderm inductions (A-83-01+BMP4+C59) for 24 hours and qPCR was conducted. […] G) H7 hESCs were differentiated into anterior primitive streak (30 ng/mL Activin+4 μM CHIR99021+20 ng/mL FGF2+100 nM PIK90) in the presence or absence of BMP4 (10 ng/mL) for 24 hours, and then transferred into paraxial mesoderm induction conditions for 24 hours before TBX6 immunostaining was conducted. […] H) NKX2.5-GFP hESCs were differentiated into primitive streak with BMP4+CHIR99021+FGF2+PIK90 for 24 hours in the presence or absence of increasing doses of Activin (10-100 ng/mL), and then transferred into suboptimal lateral/cardiac mesoderm induction conditions (A-83-01+BMP4+C59, without FGF2) for 48 hours and FACS was performed after 72 hours of total differentiation to quantify NKX2.5-GFP^+ cell percentages. […] I) Efficient MIXL11^+ PS specification is highly reproducible in both anterior and mid PS differentiation conditions (“APS” and “MPS”, respectively) across 4 independent differentiation experiments, as assayed by a MIXL1-GFP knock-in reporter hESC line. Each circle or triangle represents an individual experiment and the average differentiation efficiency attained across all experiments is indicated.

As for `Cc1cccc(-c2[nH]c(C(C)(C)C)nc2-c2ccc3c(c2)OCO3)n1` [SB-505124, 2-[4-(1,3-Benzodioxol-5-yl)-2-(1,1-dimethylethyl)-1H-imidazol-5-yl]-6-methyl-pyridine], the “paraxial mesoderm induction (qPCR day 2)” value in assay [1] (ACF with DMH1 1 μM or LDN193189 250 nM, CDF with SB-505124 2 μM or A-83-01 1 μM, 24 hours) is on record as “serve to induce paraxial mesoderm”. Moreover, in assay [1] (BMP4 (50 ng/mL)+C59, 48 hours, SB-505124 2 μM or A-83-01 1 μM, P<0.01), the “NKX2.5-GFP+ cardiac mesoderm induction (FACS day 3)” value is “increased NKX2.5-GFP^+ cardiac mesoderm induction”.

B1: BMP4: BMP family ligand, BMP agonist (protein, UniProt P12644 293-408, looked up)
Bone morphogenetic protein 4: SPKHHSQRARKKNKNCRRHSLYVDFSDVGWNDWIVAPPGYQAFYCHGDCPFPLADHLNSTNHAIVQTLVNSVNSSIPKACCVPTELSAISMLYLDEYDKVVLKNYQEMVVEGCGCR
With B1, the “lateral mesoderm specification (qPCR)” value in assay [1] (A8301+C59, 24 hours, BMP4 10-30 ng/mL) is “required to drive lateral mesoderm specification”. In addition, in the assay on hESCs (PS induced in A10CFK with BMP4 (1-40 ng/mL)), the “paraxial mesoderm potential of PS (qPCR)” value was “strongly blocked paraxial mesoderm potential”. Besides, the “lateral/cardiac mesoderm potential of PS (qPCR)” value in the assay with hESCs (PS induced in A10CFK with high BMP4 (40 ng/mL)) was “maximized lateral/cardiac mesoderm potential”. The “TBX6 immunostaining after paraxial mesoderm induction” value in the assay on hESCs (anterior PS induced with BMP4 (10 ng/mL), 24 hours) is given as “larger numbers of TBX6^− clusters of non-paraxial mesoderm cells”.

B2: Activin: TGFβ agonist (protein, UniProt P08476 311-426, looked up)
Inhibin beta A chain: GLECDGKVNICCKKQFFVSFKDIGWNDWIIAPSGYHANYCEGECPSHIAGTSGSSLSFHSTVINHYRMRGHSPFANLKSCCVPTKLRPMSMLYYDDGQNIIKKDIQNMIVEECGCS
modifications: Inhibin beta A chain
notes: TGFβ agonist
Regarding B2, in the assay on hESCs (PS induced in B10CFK with lower Activin (e.g., 10 ng/mL)), the “lateral/cardiac mesoderm potential of PS (qPCR)” value is “had maximal lateral/cardiac mesoderm potential”. For the same molecule, the “paraxial mesoderm potential of PS (qPCR)” value with hESCs (PS induced in CFK with higher Activin doses (e.g., 30 ng/mL)) is “instilled paraxial mesoderm potential”. Further, the “NKX2.5-GFP+ cell percentages (FACS, 72 hours)” value in the assay on hESCs (higher Activin doses (50-100 ng/mL) during PS induction) was “less effective”; with hESCs (low to moderate Activin during PS induction), “maximizes subsequent differentiation into NKX2.5-GFP^+ cardiac mesoderm”.
